Experimental data as given in the PETadex activity labels (doi:10.1016/j.bbagen.2004.12.016).
Changes are numbered by the printed parent chain.

B1: unnamed (protein)
chain: MKQFSAKHALAVVVTAGHALAASTQGISEDLYTRLVEMATISQAAYADLCNIPSTIIKGEKIYNSQTDINGWILRDDSSKEIITVFRGTGSDTNLQLDTNYTLTPFDTLPQCNGCEVHGGYYIGWVSVQDQVESLVKQQVSQYPDYALTVTGHSLGASLAALTAAQLSATYDNIRLYTFGEPRSGNQAFASYMNDAFQASSPDTTQYFRVTHANDGIPNLPPVEQGYAHGGVEYWSVDPYSAQNTFVCTGDEVQCCEAQGGQGVNNAHTTYFGMTSGACTW
B2: unnamed (protein)
chain: B1 chain with Y101F
B3: unnamed (protein)
chain: B1 chain with T93R
B4: unnamed (protein)
chain: B1 chain with D92I
B5: unnamed (protein)
chain: B1 chain with D98N
B6: unnamed (protein)
chain: B1 chain with D98I

Substrate: 2-(1-Naphthyl)butanoic acid
Conditions: pH 5; 37 °C

Compared with B1, B3 is 1.9-fold higher in Km: 330 µM for the first, 630 µM for the second.

With B4 the Km was 290 µM.

Going from B1 to B3, the kcat rises from 2.33 s⁻¹ to 3.77 s⁻¹ (1.6-fold).

In the case of B4, the kcat is reported as 2.7 s⁻¹.

B1 and B3 are within 1.5-fold of each other in kcat/Km: 7060 M⁻¹ s⁻¹ for the first, 5980 M⁻¹ s⁻¹ for the second.

Protein B4 has a kcat/Km of 9310 M⁻¹ s⁻¹.

Substrate: alpha-Naphthyl caprylate
Conditions: pH 5; 37 °C

Going from B1 to B2, the Km falls from 79 µM to 20 µM (4-fold).

First: B3
Second: B4
The Km of the first is 2.9-fold lower: 17 µM for the first, 50 µM for the second.

B1 and B2 are within 1.5-fold of each other in kcat: 0.85 s⁻¹ for the first, 1.09 s⁻¹ for the second.

Compared with B3, B4 is 2-fold higher in kcat: 0.32 s⁻¹ for the first, 0.64 s⁻¹ for the second.

First: B1
Second: B2
The kcat/Km of the first is 5-fold lower: 10800 M⁻¹ s⁻¹ for the first, 54500 M⁻¹ s⁻¹ for the second.

B3 and B4 are within 1.5-fold of each other in kcat/Km: 18800 M⁻¹ s⁻¹ for the first, 12800 M⁻¹ s⁻¹ for the second.

Substrate: 2-(1-Naphthyl)butanoic acid
Conditions: pH 6; 37 °C

B2 was tested, and the Km was 630 µM.

Work on B2 yielded a kcat of 3.38 s⁻¹.

For B2, the kcat/Km was 5370 M⁻¹ s⁻¹.

Same assay, conditions: pH 7; 37 °C

B5 showed a Km of 180 µM.

Protein B5 has a kcat of 32.1 s⁻¹.

B5 was tested, and the kcat/Km was 178000 M⁻¹ s⁻¹.

Same assay, conditions: pH 7.5; 37 °C

B6 gave a Km of 150 µM.

For B6, the kcat was 3.72 s⁻¹.

B6 showed a kcat/Km of 24800 M⁻¹ s⁻¹.
